Blank lines part the entries; values can stand above or below the binder they belong to.
What was measured:
canine PD-1 (canine) [1] = assay: ELISA; footnote: predicted affinity, not quantitatively measured
canine PD-1 (canine) [2] = assay: ELISA on plate-bound tagged canine PD-1, Kd by the Bobrovnik method
canine PD-1 (canine) [3] = assay: ELISA, affinity for canine PD-1 (Table 2)
canine PD-1 (canine) [4] = assay: competition ELISA, inhibition of canine PD-1 binding to canine PD-L1; competitor canine PD-L1 (Table 2)
canine PD-1 (canine) [5] = assay: competition ELISA, blockade of canine PD-1/PD-L1 binding; competitor canine PD-L1

- Kd (canine PD-1 (canine) [1]): > 10 nM
B1: NAN27 (VHH)
VHH: QPQAFGGGLVQPGGSLRLSCVASGSTDSIYAMGWYRQAPGKQRELVATITSADSTNYADSVKGRFTISRDNAKNTVVLQMNSLKPEDTAVYYCNAGSLAGYDYWGQGTQVG

- Kd (canine PD-1 (canine) [1]): > 10 nM
B7: NAN20 (VHH)
VHH: QVQLVQSGGEVKKPGASVKVSCKASGYTFTNYGITWARQAPGKGLEWVGGIYSDGSEPYYADSMKGRFTISRDNVKSTLYLQMNDLKPEDTALYFCAKGRGDFLKSAWRENRRYDSWGQGTQVG

- Kd (canine PD-1 (canine) [1]): > 10 nM
B9: NAN22 (VHH)
VHH: QVQLQASGGGLVQPGGSLRLSCAASGSIFGLYAMGWYRQAPGKQRDLVAAIASGGSTNYADSVKGRFTISRDNAKNTVYLQMNSLKPEDTADYYCNVAGDVTAQNRCKHLEVWGQGTQVG

The remaining lines, values behind:

B2: NAN15 (4B2) (VHH)
VHH: QVQLQASGGGLVQPGEHLLLSCAASGFAFGIYTMGWYRQAPGKEREKVASISRTSDSWNYADSVKGRFTISRENAKNTLYLQMNSLKPEDTALYFCAKSRSAWNTDDIEYWGQGTQVG
- Kd (canine PD-1 (canine) [2]): 2.51 nM
- Kd (canine PD-1 (canine) [3]): 2.51 nM
- IC50 (canine PD-1 (canine) [4]): 5 nM
- IC50 (canine PD-1 (canine) [5]): 5 nM

B3: NAN7/8 (5A5) (VHH)
VHH: QVQLQASGGGLVEPGGSLRLSCAASGAIFRIAAMGWYRQAPGKERELVATITRGGSTNYADSVKGRFTISRDNAKNTAYLQMDSLKAEDTGVYYCNAGLWATTSANYWGQGTQVG
- Kd (canine PD-1 (canine) [2]): 5.01 nM
- Kd (canine PD-1 (canine) [3]): 5.01 nM
- IC50 (canine PD-1 (canine) [4]): 6.83 nM
- IC50 (canine PD-1 (canine) [5]): 6.83 nM

B4: NAN9 (VHH)
VHH: QVQLQASGGGLVQPGGSLRLSCATSGFTLDNLAIGWLRQAPGKEREGVSCISGSVGSTYYVDSVEGRFTISKDNAKNTVALQMDRLNPEDTAVYYCSAVGRERTHLPNWQYWGQGTQVG
- Kd (canine PD-1 (canine) [1]): > 10 nM

B5: NAN10 (4B4) (VHH)
VHH: QVQLQASGGGLVQGGESLRLSCAASGRTVAEYTIGWYRQAPGKEREFVAGPSWHARGTSYLDSVKGRFTISRDNTKDTVYLQMNTLKPEDTAVYYCNADVNTDYSEYVEYWGQGTQVG
- Kd (canine PD-1 (canine) [2]): 2.3 nM
- Kd (canine PD-1 (canine) [3]): 2.3 nM
- IC50 (canine PD-1 (canine) [4]): 5.04 nM
- IC50 (canine PD-1 (canine) [5]): 5.04 nM

B6: NAN13/14 (VHH)
VHH: QVQLQASGGGLAQPGGSLRLSCAASGFTFSSYAMSWARQAPGKGLEWVSGIYSDGSGSYYADSVKGRFTISRDNAKNTLYLQMNSLKPEDTALYYCAKGSWSRGIKETDYWGQGTQVG
- Kd (canine PD-1 (canine) [1]): > 10 nM

B8: NAN6 (VHH)
VHH: QVQLQASGGGLVQPGGSLTLSCAASGSIDSILAMGWYRQGPGKQRELVATITSDGGSTNYAEYVKGRFTISRDDANNTACLQMDNLKPDDTAVYYCNAKGRRLSYGYWGQGTQVG
- Kd (canine PD-1 (canine) [1]): > 10 nM

B10: NAN4 (5A1) (VHH)
VHH: QVQLQASGGGLVQPGGSLTLSCAASGSIDSILAMGWYRQGPGKQREFVASISWSGDITYYADSAKGRFTISRDNAKNTVYLQMNSLKPEDTAVYYCNAGPDMQISGPTDDYDYWGQGTQVG
- Kd (canine PD-1 (canine) [2]): 7 nM
- Kd (canine PD-1 (canine) [3]): 7 nM
- IC50 (canine PD-1 (canine) [4]): 8.25 nM
- IC50 (canine PD-1 (canine) [5]): 8.25 nM

— patent US20210047412A1
